From patent US9382316B2, “Humanized anti-EMAP II antibody and use thereof” (Cell & Bio Co., Ltd., dated 2016)
Several values for one entry are separate records, joined by “and”; a condition that tells them apart may be missing. Equal values may be shown once.

T1: human EMAPII (endothelial monocyte activating polypeptide II) antigen (human)
T1 chain: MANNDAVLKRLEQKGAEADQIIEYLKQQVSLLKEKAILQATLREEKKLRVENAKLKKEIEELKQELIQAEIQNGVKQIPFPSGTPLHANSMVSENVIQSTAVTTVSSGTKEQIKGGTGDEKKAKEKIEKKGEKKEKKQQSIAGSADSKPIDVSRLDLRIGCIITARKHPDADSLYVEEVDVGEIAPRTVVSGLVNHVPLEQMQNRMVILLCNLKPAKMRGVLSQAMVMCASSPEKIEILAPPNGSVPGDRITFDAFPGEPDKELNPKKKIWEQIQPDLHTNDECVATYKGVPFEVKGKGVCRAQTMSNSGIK


Columns and labels:
[1] = biological target: T1, human EMAPII (endothelial monocyte …); assay: ELISA, plate coated with EMAPII antigen, anti-mouse IgG-HRP detection
[2] = biological target: T1, human EMAPII (endothelial monocyte …); assay: ELISA, plate coated with 2.5 ug/ml EMAPII antigen, anti-human-IgG HRP detection; range over the 3 clones

| EC50 [1] | EC50 [2] | Binder |
| --- | --- | --- |
| 0.0209 µg/mL |  | mouse anti-EMAPII monoclonal antibody (antibody, V domains shown) VH: QVQLQQSGAELARPGASVKMSCKASGYTFTSYTMHWVKQRPGQGLEWIGYINPSSGFTNYNQKFKDKATLTADKSSSTAYMQLSSLTSEDSAVYYCASRFAYWGQGTLVTVSA VL: DIVMTQSHKFMSTSVGDRVSITCKASQDVSTAVAWYQQKPGQSPKLLIFSASYRYTGVPDRFTGSGSGTDFTFTISSVQAEDLAVYYCQQHYSTPYTFGGGTKLEIK |
|  | 0.0215 µg/mL and 0.0302 µg/mL | mouse/human chimeric antibody BAP015_1 (antibody, V domains shown) VH: QVQLQQSGAELARPGASVKMSCKASGYTFTSYTMHWVKQRPGQGLEWIGYINPSSGFTNYNQKFKDKATLTADKSSSTAYMQLSSLTSEDSAVYYCASRFAYWGQGTLVTVSA VL: DIVMTQSHKFMSTSVGDRVSITCKASQDVSTAVAWYQQKPGQSPKLLIFSASYRYTGVPDRFTGSGSGTDFTFTISSVQAEDLAVYYCQQHYSTPYTFGGGTKLEIK |
